Assay results from the nanobody polyreactivity screen of Harvey et al. (2022).

assay: yeast display, Sf9 membrane polyspecificity reagent, FACS + sequencing; frameworks hold sequencing errors
Procedure, shortened: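 After 36–48 hours of galactose induction, yeast (Saccharomyces cerevisiae BJ5465) displaying a synthetic nanobody library were stained at 4 °C for 1 hour with 10% biotinylated, detergent-solubilized Sf9 membrane reagent. Streptavidin microbeads enriched the stained cells before FACS sorting into low and high (top ~1%) gates on anti-HA and streptavidin fluorescence. Each clone's polyreactivity label reflects its gate of origin.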

Sequence	polyreactivity (PSR sort gate)
QVQLVESGGGLVQAGGSLRLSCAASGRTFDWYAMGLYRQAPGKERELVAAISWSGGSTYYADSVKGRFTISRDNAKNTVYLQMNSLKPEDTAVYYCATDSYTEQSWVAEGYSGQGTQVTVSS	low polyreactivity
QVQLVESGGGLVQAGGSLRLSCAASGRTFDWYVMGWYRQAPGKERELVASIPGTGSTYYADSVKGRFTISRDNAKNTVYLQMNSLKPEDTAVYYCNVAWIWGKYDYWGQGTQVTVSS	high polyreactivity
QVQLVESGGGLVQAGGSLRLSCAASGRTFDYNAMGWYRQAPGKERELFAAISQSGGRTYYADSVKGRFTISRDNAKNTVYLQMYSLKPVDTAVYYCAAEAYGNRDYWGQGTQVTVSS	low polyreactivity
QVQLVESGGGLVQAGGSLRLSCAASGRTFDYYAMGWYRQAPGKERELVAAITLSAGRTYYADSVKGRFTISRDNAKNTVYLQMNSLKPEDTAVYYCAARFRRLQRFYYWGQGTQVTVSS	high polyreactivity
QVQLVESGGGLVQAGGSLRLSCAASGRTFDYYAMGWYRQAPRKERELVAAISSGGSTNYADSVKGRFTISRDNAKNTVYLQMNSLKPEATAVYYCAVSGIDDVKYDYWGQGTQVTVSS	low polyreactivity
QVQLVESGGGLVQAGGSLRLSCAASGRTFDYYTMGWYRQAPGKERELVAAISWSGSTTYYADSVKGRFTISRDNAKNTVSLQMNSLKPEDTAVYYCAKSYRFPSVGPPGELDYWGQGTQVTVSS	high polyreactivity
QVQLVESGGGLVQAGGSLRLSCAASGRTFEGNAMGWDRQAPGKERELVAALTYPGGDTHYADSVKGRCTISRDNPKNTVYLQMTSLKPEDTAGYYCAADWGWPHTDSMDYWGQGTQVTVSS	low polyreactivity
QVQLVESGGGLVQAGGSLRLSCAASGRTFEGNAMGWYRQAPGKERELVAAISGSGGRTYYADSVKGRFTISRDNAKNTVYLQMNSLKPEDTAVYYAKLYSVYNPWRFNYWGQGTQVTVSS	high polyreactivity
QVQLVESGGGLVQAGGSLRLSCAASGRTFEGYTMGWYRQAPGKERELVAAITWRGTSTYYADSVKGRFTISRDNAKNTVYLQMNSLKPEDTAVYYCNKVGWYHNYYYWGQGTQVTVSS	high polyreactivity
QVQLVESGGGLVQAGGSLRLSCAASGRTFEGYTMGWYRQAPGKERELVSAISWSGARTYYADSVKGRFTISRDNAKNTVYLQMNSLKPEDTAVYYCAADRYWISLWYIMGYWGQGTQVTVSS	high polyreactivity
QVQLVESGGGLVQAGGSLRLSCAASGRTFEHYAMVWYRPAPGKERELVAAITWSGVSTYYADSVKGRFTISRDNAKNTVYLQMNSLKPEDTAVYYCAAKWLGYGFDYWGQGTQVTVSS	low polyreactivity
QVQLVESGGGLVQAGGSLRLSCAASGRTFERNAMGWYRQAPGKERELVAAITSGDGTSYADSVKGRFTISRDNAKNTVYLQMNSLKPEDTAVYYCAVSKGVFLVRGYAYHVGYWGQGTQVTVSS	low polyreactivity
QVQLVESGGGLVQAGGSLRLSCAASGRTFERNAMGWYRQAPGKERQLVAAITSGDGTSYADSVKGRFTISRDNAKNTVYLQMNSLKPEDTAVYYCAAPFVGSVVIRRWDEYDYWGQGTQVTVSS	low polyreactivity
QVQLVESGGGLVQAGGSLRLSCAASGRTFERYAMGWYRQAPGKERELVAAISSIGGSTYYADSVKGRFTISRDNAKNTVYLQMNSLKPEDTAVYYCADSVFYYASRYDYWGQGTKVTVSS	low polyreactivity
QVQLVESGGGLVQAGGSLRLSCAASGRTFESYAMGWYRQAPGKERELVAAITSTDDRTYYADSVKGRFTISRDNAKNTVYLQMNSLKPEDTAVYYCAVESRRDDFEYDYWGQGTQVTVSS	low polyreactivity
QVQLVESGGGLVQAGGSLRLSCAASGRTFEYYAMGWYRQAPGKERELVAAITSGGITYYADSVKGRFTISRDNAKYTVYLQMNSLKPEDTAVYYCNARHRYYRYGYWGQGTQVTVSS	high polyreactivity
QVQLVESGGGLVQAGGSLRLSCAASGRTFEYYAMGWYRQAPGKERELVASITSSGVRTYYADSVKGRFTISRDNAKNTVYLQMNSLKPEDTAVYYCAKRLVYSRWGDYWGQGTQVTVSS	high polyreactivity
QVQLVESGGGLVQAGGSLRLSCAASGRTFFGYAMGWYRQAPGKERELVAAITTSGGSTYYADSVKGRFTISRDNAKNTVYLQMNSLKPEDTAVYYCAADSTNYWLGFYYWGQGTQVTVSS	low polyreactivity
QVQLVESGGGLVQAGGSLRLSCAASGRTFFHNPMGWYRQAPGKERELVAAISSGGGTYADSVKGRFTISRDNAKNTVYLQINSLKPEDTAVYYCAATLYNTEDDYWGQGTQVTVSS	low polyreactivity
QVQLVESGGGLVQAGGSLRLSCAASGRTFFIYAMGWYRPAPGKERELVAAITYGGGRTFYADSVKGRFTISRDNAKYTVYLQMNSLKPEDTAVYYCAATVRGKRSTYDYWGQGTQVTVSS	high polyreactivity
QVQLVESGGGLVQAGGSLRLSCAASGRTFFKNAMGWYRQAPGKERELVAAITSSGGTTYYADSVKGRFTISRDNAKNTVYLQMNSLKPEDTAVYYCATRTYPIRYGYGYWGQGTQVTVSS	high polyreactivity

Sequence	polyreactivity (PSR sort gate)
QVQLVESGGGLVQAGGSLRLSCAASGRTFFKYVMGWSRQAPGKERELVAAITWNGGRTNYADSVKGRFTISRDYAKNTVYLQMNSLKPEDTAVYYCAAVTSVNPSVFNGNYWGQGTQVTVSS	low polyreactivity
QVQLVESGGGLVQAGGSLRLSCAASGRTFFLYALGWYRQATGKERELFARISTSGGGTYYADSVKGRFTISRDHAKNTVYLQMISLKPEDTAVYYCAARTDRGQRRAGGYDFWGQGTQVTVSS	high polyreactivity
QVQLVESGGGLVQAGGSLRLSCAASGRTFFPNAMGWYRQAPGKERELVASITSRGGGTYYADSVKGRFTISRDYAKNTVYLQMNSLKPEDTAVYYCADDRYYFSPGYNWWSEGYDYWGQGTQVTVSS	low polyreactivity
QVQLVESGGGLVQAGGSLRLSCAASGRTFFPYAMGWYRQAPGKEREFVAAITWSGGSTTYADSVKGRFTISRDNAKNTVYLQMTSLKPEDTAVYYCNDGRRRSYSYDYWGQGTQVTVSS	low polyreactivity
QVQLVESGGGLVQAGGSLRLSCAASGRTFFPYGMGWYRQAPGKERELVASISYSGGITYYADSVKGRFTISRDNAKNTVYLQMNSLKPEDTAVYYCSVRTIWRFRYDYWGQGTQVTVSS	high polyreactivity
QVQLVESGGGLVQAGGSLRLSCAASGRTFFQYGMGWYRQAPGKERELVASITRSGGRTNYADSVKGRFTISRDNAKNTVYLQMNSLKPEDTAVYYCAAYYYGSAAYGYGYNYWGQGTQVTVSS	high polyreactivity
QVQLVESGGGLVQAGGSLRLSCAASGRTFFRNAMGWYRQAPGKERELVAAISKRGGSTRYADSVKGRFTISRDNAKNTAYLQMNSLQPEDTAVYYCAADSRLEYSHATLYYCGQGTQVTVSS	high polyreactivity
QVQLVESGGGLVQAGGSLRLSCAASGRTFFRYGMGWYRQAPGKEREFVAAITRSGTTTYYADSVKGRFTISRDNAKNTVYLQMNSLKPEDTAVYYCAAQRAARVDGKSDYWGQGTQVTVTS	low polyreactivity
QVQLVESGGGLVQAGGSLRLSCAASGRTFFSNAMGWYRQAPGKERELVAVIDSGGSTYYADSVKGRFTISRDNAKNTVYLQMNSLKPEDTAVYYCAADTGTAPSEDYLGQGTQVTVSS	low polyreactivity
QVQLVESGGGLVQAGGSLRLSCAASGRTFFSYTMGWYRQAPGKEREFVAAITTSGGYTHYADSVKGRFTISRDNAKNTVYLQMNSLIPEDTAVYYCAAVGRYPYKGYNYWGQGTQVTVSS	high polyreactivity
QVQLVESGGGLVQAGGSLRLSCAASGRTFFVNAMGWYRQAPGKERELVAGITRTGGTTYYADSVKGRFTISRDNAKNTVYLQMNSLKPEDTAVYYCAATPGGTDLGGGYYGFDYWGQGTQVTVSS	low polyreactivity
QVQLVESGGGLVQAGGSLRLSCAASGRTFFVYDMGWYRQAPGKERELVAAISRGGSTNYADSVKGRFTISRDNAKNTVYLQMNSLKPEDTAVYYCAASVQYRRLKKFYYWGQGTQVTVSS	high polyreactivity
QVQLVESGGGLVQAGGSLRLSCAASGRTFFWYAMGWYRQAPGKERELVADISSSGGSTYYADSVKGRFTISRDNAKNTVYLQMNSLKPEDTAVYYCAALSPWWRGGYDYWGQGTQVTVSS	high polyreactivity
QVQLVESGGGLVQAGGSLRLSCAASGRTFFWYAMGWYRQAPGKERELVAGISRGGRTNYADSVKGRFTISRDNAKNTVYLQMNSLKPEDTAVYYCAADSWLTYFLGTSEHYYWGQGTQVTVSS	high polyreactivity
QVQLVESGGGLVQAGGSLRLSCAASGRTFFWYVMGWYRQAPGKERELVATISYGGITYYADSVKGRFTISRDNAKNTVYLQMNSLKPEETALYYCAAKPSRSLYYYWGQGTQVTVSS	high polyreactivity
QVQLVESGGGLVQAGGSLRLSCAASGRTFFYNARGWYRQEPGKERELVAAIDWSGDSTYYADSVKGRFTISRDNAKNTVYLQMNSLKPEDTAVYYCAARRKNRRDYDYYYWGQGTQVTVSS	high polyreactivity
QVQLVESGGGLVQAGGSLRLSCAASGRTFFYNTMGWYRQAPGKERELVARITRGGSTYYADSVKGRFTISRDNAKNSVYLQMNSLKPEDTAVYYCAAGYWRGYFLYGFDYWGQGTQVTVSS	high polyreactivity
QVQLVESGGGLVQAGGSLRLSCAASGRTFGANAMGWYRQAPGKERELVAAINSGDITNYADSVKGRFTISRDNAKNTVYLQMNSLKPEDTAVYYCAAGSYYTYSGYNYWGQGTQVTVSS	low polyreactivity
QVQLVESGGGLVQAGGSLRLSCAASGRTFGAYAMGCYRQAPGKERELVAAISIGGRTYYADSVKGRFTISRDKAKNTVYLQMNILKPEDTAVYYCNKVRSPWYDSWGQGTQVTVSS	high polyreactivity
QVQLVESGGGLVQAGGSLRLSCAASGRTFGAYAMGWYRQAPGKERELVAAISSSGGSTYYADSLKGRFTISRDNAKNTVYLQMNSLKPEDTAVYYCAKGWHRGVGFGYWGQGTQVTVSS	high polyreactivity
